Data from article PMC5412566 (The Journal of Cell Biology, 2017).

Legend:
[1] = biological target: wild-type SecA-SecYEG translocase (SecA bound to SecYEG-inverted inner membrane vesicles) (E. coli) (UniProt P10408); test: co-sedimentation
[2] = biological target: SecA(LCt) (locked C-tail) bound to SecYEG-inverted membrane vesicles (E. coli) (UniProt P10408); test: co-sedimentation
[3] = biological target: native PhoA (E. coli) [phosphatase: P00634]; test: native MS
[4] = biological target: wild-type SecA-SecYEG translocase (SecA bound to SecYEG-inverted inner membrane vesicles) (E. coli, UniProt P10408;P0AGA2;P0AG96;P0AG99); test: co-sedimentation
Chain of wild-type SecA-SecYEG translocase (SecA bound to SecYEG-inverted inner membrane vesicles) (P10408 whole entry, chain 1 of 4): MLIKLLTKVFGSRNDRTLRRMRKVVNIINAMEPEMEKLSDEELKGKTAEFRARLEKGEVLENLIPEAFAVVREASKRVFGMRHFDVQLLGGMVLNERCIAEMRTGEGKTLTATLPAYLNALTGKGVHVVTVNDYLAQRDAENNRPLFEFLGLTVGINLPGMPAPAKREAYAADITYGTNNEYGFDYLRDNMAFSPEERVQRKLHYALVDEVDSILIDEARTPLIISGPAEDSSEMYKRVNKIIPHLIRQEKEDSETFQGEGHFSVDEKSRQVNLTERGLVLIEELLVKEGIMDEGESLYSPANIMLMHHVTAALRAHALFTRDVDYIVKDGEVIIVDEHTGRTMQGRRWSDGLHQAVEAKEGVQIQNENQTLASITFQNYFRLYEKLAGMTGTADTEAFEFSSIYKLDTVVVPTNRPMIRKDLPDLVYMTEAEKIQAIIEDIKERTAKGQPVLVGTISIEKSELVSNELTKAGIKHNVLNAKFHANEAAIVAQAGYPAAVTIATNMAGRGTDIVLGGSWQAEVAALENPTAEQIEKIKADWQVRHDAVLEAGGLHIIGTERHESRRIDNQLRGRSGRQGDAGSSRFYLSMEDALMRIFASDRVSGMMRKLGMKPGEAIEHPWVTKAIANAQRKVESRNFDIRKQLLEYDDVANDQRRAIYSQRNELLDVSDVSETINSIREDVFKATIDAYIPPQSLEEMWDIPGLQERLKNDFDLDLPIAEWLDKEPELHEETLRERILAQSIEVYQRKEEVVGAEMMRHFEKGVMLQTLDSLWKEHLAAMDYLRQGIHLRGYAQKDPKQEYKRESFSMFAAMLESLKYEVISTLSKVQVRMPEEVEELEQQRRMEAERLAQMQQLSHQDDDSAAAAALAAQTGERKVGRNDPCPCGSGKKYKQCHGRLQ
Chain of wild-type SecA-SecYEG translocase (SecA bound to SecYEG-inverted inner membrane vesicles) (P0AGA2 whole entry, chain 2 of 4): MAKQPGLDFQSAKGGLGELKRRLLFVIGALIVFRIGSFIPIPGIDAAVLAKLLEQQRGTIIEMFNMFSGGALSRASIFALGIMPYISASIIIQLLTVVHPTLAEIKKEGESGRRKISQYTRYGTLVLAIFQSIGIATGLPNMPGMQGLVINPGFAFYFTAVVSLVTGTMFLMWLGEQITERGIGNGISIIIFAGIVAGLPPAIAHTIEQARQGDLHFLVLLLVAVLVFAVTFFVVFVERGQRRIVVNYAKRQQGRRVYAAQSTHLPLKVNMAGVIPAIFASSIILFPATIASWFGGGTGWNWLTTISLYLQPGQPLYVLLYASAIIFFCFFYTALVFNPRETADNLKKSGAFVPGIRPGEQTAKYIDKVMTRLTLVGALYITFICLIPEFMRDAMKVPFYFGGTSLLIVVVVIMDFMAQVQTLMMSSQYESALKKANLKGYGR
Chain of wild-type SecA-SecYEG translocase (SecA bound to SecYEG-inverted inner membrane vesicles) (P0AG96 whole entry, chain 3 of 4): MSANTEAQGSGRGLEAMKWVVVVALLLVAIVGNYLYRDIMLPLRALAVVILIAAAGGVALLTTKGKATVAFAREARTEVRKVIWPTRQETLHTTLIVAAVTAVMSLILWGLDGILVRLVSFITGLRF
Chain of wild-type SecA-SecYEG translocase (SecA bound to SecYEG-inverted inner membrane vesicles) (P0AG99 whole entry, chain 4 of 4): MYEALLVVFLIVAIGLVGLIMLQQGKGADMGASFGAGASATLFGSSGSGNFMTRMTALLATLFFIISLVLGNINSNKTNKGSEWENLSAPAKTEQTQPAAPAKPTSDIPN

Chain of wild-type SecA-SecYEG translocase (SecA bound to SecYEG-inverted inner membrane vesicles) (E. coli) (P10408 whole entry, chain 1 of 4): as the sequence (P10408 whole entry, chain 1 of 4) above
Chain of wild-type SecA-SecYEG translocase (SecA bound to SecYEG-inverted inner membrane vesicles) (E. coli) (P0AGA2 whole entry, chain 2 of 4, further chain): as the sequence (P0AGA2 whole entry, chain 2 of 4) above
Chain of wild-type SecA-SecYEG translocase (SecA bound to SecYEG-inverted inner membrane vesicles) (E. coli) (P0AG96 whole entry, chain 3 of 4, further chain): as the sequence (P0AG96 whole entry, chain 3 of 4) above
Chain of wild-type SecA-SecYEG translocase (SecA bound to SecYEG-inverted inner membrane vesicles) (E. coli) (P0AG99 whole entry, chain 4 of 4, further chain): as the sequence (P0AG99 whole entry, chain 4 of 4) above
Chain of HdeA(noMTS) (P0AES9 22-110): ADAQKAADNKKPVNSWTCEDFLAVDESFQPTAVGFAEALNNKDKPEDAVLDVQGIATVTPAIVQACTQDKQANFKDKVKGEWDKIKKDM
Chain of YncJ(noMTS) (P64459 23-76): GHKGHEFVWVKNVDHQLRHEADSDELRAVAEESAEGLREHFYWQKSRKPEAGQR
Chain of SecA(LCt) (locked C-tail) bound to SecYEG-inverted membrane vesicles (E. coli) (P10408 whole entry, chain 1 of 4): as the sequence (P10408 whole entry, chain 1 of 4) above
Chain of SecA(LCt) (locked C-tail) bound to SecYEG-inverted membrane vesicles (E. coli) (P0AGA2 whole entry, chain 2 of 4, further chain): as the sequence (P0AGA2 whole entry, chain 2 of 4) above
Chain of SecA(LCt) (locked C-tail) bound to SecYEG-inverted membrane vesicles (E. coli) (P0AG96 whole entry, chain 3 of 4, further chain): as the sequence (P0AG96 whole entry, chain 3 of 4) above
Chain of SecA(LCt) (locked C-tail) bound to SecYEG-inverted membrane vesicles (E. coli) (P0AG99 whole entry, chain 4 of 4, further chain): as the sequence (P0AG99 whole entry, chain 4 of 4) above
Chain of Lpp(noMTS) (P69776 21-78): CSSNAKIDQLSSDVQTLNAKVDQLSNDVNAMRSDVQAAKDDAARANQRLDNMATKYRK
Chain of PhoA (mature domain of proPhoA, signal peptide-less, urea-purified) (P00634 22-471): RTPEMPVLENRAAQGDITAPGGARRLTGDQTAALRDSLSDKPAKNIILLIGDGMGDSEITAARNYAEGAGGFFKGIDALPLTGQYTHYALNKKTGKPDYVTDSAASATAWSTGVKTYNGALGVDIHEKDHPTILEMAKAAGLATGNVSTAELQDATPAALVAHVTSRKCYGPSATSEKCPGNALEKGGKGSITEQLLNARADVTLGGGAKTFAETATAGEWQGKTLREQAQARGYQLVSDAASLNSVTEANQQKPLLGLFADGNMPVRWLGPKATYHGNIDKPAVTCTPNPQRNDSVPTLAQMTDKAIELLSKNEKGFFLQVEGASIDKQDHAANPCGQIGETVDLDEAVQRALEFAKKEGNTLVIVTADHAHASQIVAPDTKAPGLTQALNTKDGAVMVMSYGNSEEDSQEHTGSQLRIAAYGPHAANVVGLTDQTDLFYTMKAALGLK

| Kd [1] | Molecule | also measured |
| --- | --- | --- |
| > 20 µM | HdeA(noMTS) (from UniProt P0AES9 22-110) (natural protein) | – |
| > 20 µM | Lpp(noMTS) (from UniProt P69776 21-78) (natural protein) | – |
| – | PhoA (mature domain of proPhoA, signal peptide-less, urea-purified) (from UniProt P00634 22-471) (natural protein) | fold reduction of affinity against the wild-type translocase [2]: 18 fold |
| > 20 µM | YncJ(noMTS) (from UniProt P64459 23-76) (natural protein) | – |
| – | native PhoA (from UniProt P00634 22-471) (enzyme) | stoichiometry N [3]: 2 |
| – | MKQSTIALALLPLLFTPVTKARTPEMPVLE [signal peptide of proPhoA, proPhoA(1–30)] | Kd [4]: ~3 µM |
